Experimental data reported in article doi:10.1101/2021.08.28.458030.

Biological target: T1, Human fumarase (human), P07954
T1 chain: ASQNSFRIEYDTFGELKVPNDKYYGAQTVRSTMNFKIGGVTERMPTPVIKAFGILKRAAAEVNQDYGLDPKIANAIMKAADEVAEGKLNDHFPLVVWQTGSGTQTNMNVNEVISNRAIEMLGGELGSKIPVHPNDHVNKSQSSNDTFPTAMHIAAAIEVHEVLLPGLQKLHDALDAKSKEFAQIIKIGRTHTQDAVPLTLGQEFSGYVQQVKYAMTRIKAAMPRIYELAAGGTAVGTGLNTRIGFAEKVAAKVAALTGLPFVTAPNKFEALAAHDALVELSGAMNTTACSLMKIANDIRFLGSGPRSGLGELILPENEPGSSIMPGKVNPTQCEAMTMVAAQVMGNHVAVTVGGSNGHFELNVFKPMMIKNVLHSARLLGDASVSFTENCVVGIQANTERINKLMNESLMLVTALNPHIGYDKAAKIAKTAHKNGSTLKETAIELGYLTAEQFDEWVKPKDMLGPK
Assay: crystal structure
Settings: remark: other sources report otherwise

stoichiometry N: 4
B1: Human fumarase, P07954 45-510 (enzyme)
chain: ASQNSFRIEYDTFGELKVPNDKYYGAQTVRSTMNFKIGGVTERMPTPVIKAFGILKRAAAEVNQDYGLDPKIANAIMKAADEVAEGKLNDHFPLVVWQTGSGTQTNMNVNEVISNRAIEMLGGELGSKIPVHPNDHVNKSQSSNDTFPTAMHIAAAIEVHEVLLPGLQKLHDALDAKSKEFAQIIKIGRTHTQDAVPLTLGQEFSGYVQQVKYAMTRIKAAMPRIYELAAGGTAVGTGLNTRIGFAEKVAAKVAALTGLPFVTAPNKFEALAAHDALVELSGAMNTTACSLMKIANDIRFLGSGPRSGLGELILPENEPGSSIMPGKVNPTQCEAMTMVAAQVMGNHVAVTVGGSNGHFELNVFKPMMIKNVLHSARLLGDASVSFTENCVVGIQANTERINKLMNESLMLVTALNPHIGYDKAAKIAKTAHKNGSTLKETAIELGYLTAEQFDEWVKPKDMLGPK
